Data set [1] addresses T1, extracellular domain of human CD73 (residues 27-549) deglycosylated with PNGase F (human, UniProt P21589, deglycosylated with PNGase F; a glycan left at Asn-311).
T1 construct: CD73 (ecto-5'-nucleotidase, NT5E), human, extracellular domain, residues 27-549; Construct used for SEC-MALS and for the two crystal structures; also called ecto-5'-nucleotidase; NT5E; source: ExpiHEK293, purified (nickel column, PNGase F, size-exclusion chromatography)
Put plainly: crystal structure; TB19 Fab::CD73 complex; crystals in 0.1 M sodium potassium phosphate pH 6.2, 35% 5-methyl-2,4-pentanediol, 2.5% pentaerythritol ethoxylate, 4°C. Conditions: both partners purified.

For the next data set, the target named is T2, soluble CD73 dimer (human, UniProt P21589).
T2 construct: CD73 (ecto-5'-nucleotidase, NT5E), human, soluble form; Also used here as the target of the functional rows, where CD73 stood whole on COR-L23 cells; also called soluble human CD73
Put plainly: BLI; pre-mix epitope binning: monovalent antibodies on protein A biosensors, 100 nM CD73 alone or with a 4-fold molar excess of Fab; PBS pH 7.4, 0.1% BSA, 0.01% Tween 20, 30°C. Conditions: both partners purified. On the technique in general: BLI is a label-free optical method that tracks binding on a fibre tip over time.

The target in a further data set is TB19/TB38. As to the kind of experiment: SPR; Biacore T200, 25°C, HBS-EP+ pH 7.4; antibody captured at low density (5-30 RU) on Protein A chips, CD73 at 3, 12 or 32 nM in the flow (5 min association, 30 min dissociation); 1:1 Langmuir binding model. On the technique in general: In SPR one partner is held on a chip, and binding of the other changes the refractive index at the surface.

Another data set has as its target TB19/AS30. Described as above.
For another data set, the target named is TB38/AS30. The data set is described as above.
Data set [2] concerns the molecule itself. As to the kind of experiment: crystal structure; TB19 Fab::CD73 complex; crystals in 0.1 M sodium potassium phosphate pH 6.2, 35% 5-methyl-2,4-pentanediol, 2.5% pentaerythritol ethoxylate, 4°C.
Data set [3] addresses T1, extracellular domain of human CD73 …. Put plainly: crystal structure; TB38 Fab::CD73 complex; crystals in 1.6 M sodium phosphate monobasic, 0.4 M potassium phosphate dibasic, 0.1 M sodium phosphate citrate pH 5.3, 4°C. The following applies: both partners purified.

B1: TB19 Fab (Fab, V domains shown)
VH: QEQLQESGPGLVKPSETLSLTCTVSGGSIRNNYYNWIRQPAGKGLEWIGRIYISGTTNSNPSLKSRVTMSIDTSKNQFSLKLSSVTAADTAIYYCAREHYVSGTSLDNWGQGTLVTVSS
VL: EIVMTQSPTTLSLSPGERATLSCRASQSVNTNYFSWYQQKPGLTPRLLIYGTSTRATGIPARFSGSGSGTDFTLTISSLQPEDFGIYYCQQDYNLPYTFGQGTYLEIK
notes: deposited with the structure TB19::CD73, PDB 6VC9 (only the Fv could be built); The methods speak of a 'TB19.3 Fv model' as search model; also called TB19 Fv
In the case of B1, the binding result (in data set [1]; with soluble CD73 dimer) was “binds” throughout.

B2: soluble CD73 dimer (enzyme)
chain: WELTILHTNDVHSRLEQTSEDSSKCVNASRCMGGVARLFTKVQQIRRAEPNVLLLDAGDQYQGTIWFTVYKGAEVAHFMNALRYDAMALGNHEFDNGVEGLIEPLLKEAKFPILSANIKAKGPLASQISGLYLPYKVLPVGDEVVGIVGYTSKETPFLSNPGTNLVFEDEITALQPEVDKLKTLNVNKIIALGHSGFEMDKLIAQKVRGVDVVVGGHSNTFLYTGNPPSKEVPAGKYPFIVTSDDGRKVPVVQAYAFGKYLGYLKIEFDERGNVISSHGNPILLNSSIPEDPSIKADINKWRIKLDNYSTQELGKTIVYLDGSSQSCRFRECNMGNLICDAMINNNLRHTDEMFWNHVSMCILNGGGIRSPIDERNNGTITWENLAAVLPFGGTFDLVQLKGSTLKKAFEHSVHRYGQSTGEFLQVGGIHVVYDLSRKPGDRVVKLDVLCTKCRVPSYDPLKMDEVYKVILPNFLANGGDGFQMIKDELLRHDSGDQDINVVSTYISKMKVIYPAVEGRIKFS
On to B2, for which the Kd (as a rule, a measure of binding affinity in units of concentration) with TB19/TB38 worked out at 555 pM; in the data set with TB19/AS30, 4180 pM; with TB38/AS30, 814 pM. Moreover, the off-rate (koff) (as a rule, the rate constant with which the complex falls apart) in the data set with TB19/TB38 was found to be 0.000102 s⁻¹; with TB19/AS30 it was 0.00069 s⁻¹; in the data set with TB38/AS30 it was 0.000187 s⁻¹. Also, the kon (as a rule, the rate constant with which the complex forms) amounted to 184000 M⁻¹ s⁻¹ with TB19/TB38, 165000 M⁻¹ s⁻¹ in the data set with TB19/AS30 and 237000 M⁻¹ s⁻¹ with TB38/AS30.

B3: extracellular domain of human CD73 (residues 27-549) deglycosylated with PNGase F (enzyme, UniProt P21589 27-549, looked up)
chain: B2 chain
modifications: deglycosylated with PNGase F; a glycan left at Asn-311
notes: CD73 (ecto-5'-nucleotidase, NT5E), human, extracellular domain, residues 27-549; Construct used for SEC-MALS and for the two crystal structures; also called ecto-5'-nucleotidase; NT5E; source: ExpiHEK293, purified (nickel column, PNGase F, size-exclusion chromatography)
Turning to B3, in data set [2], the stoichiometry N (as a rule, the number of molecules, sites or subunits per partner or assembly) came to 2.

B4: TB38 Fab (Fab, V domains shown)
VH: QVQLVESGGGVVQPGRSLRLSCAASGFTFSSYGMHWVRQAPGKGLEWVAVFWYDGSNKYYADSVKGRFTISRDNSKNTLYLQMNSLSAEDTAVYYCARAPNWDDAFDIWGQGTMVTVSS
VL: QTVVTQEPSFSVSPGGTVTLTCGLSSGSVSTSYYPNWYQQTPGQAPRTLIYSTNTRSSGVPDRFSGSILGNKAALTITGAQADDESDYYCVLFMGSGIWVFGGGTKLTVL
notes: deposited with the structure TB38::CD73, PDB 6VCA (full Fab built on the open CD73 dimer); also called TB38 Fv
With B4, in data set [3], the binding result is “binds”.
